Experimental data published in US20230265187A1 (published 2023).

T1: his-tagged human TIGIT (Acro Biosystems #TIT-H52H3) (human, UniProt Q495A1 22-141)
T1 construct: Bought protein; also called His-tagged-TIGIT (human); not shown: his tag
T1 sequence (looked up): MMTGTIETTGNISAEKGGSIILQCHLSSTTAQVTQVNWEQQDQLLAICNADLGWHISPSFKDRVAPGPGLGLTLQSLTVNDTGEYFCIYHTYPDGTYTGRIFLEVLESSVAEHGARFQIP

T2: his-tagged murine TIGIT (Acro Biosystems #TIT-M52E6) (murine, UniProt P86176 29-148, limits assumed)
T2 construct: Bought protein; also called mouse his-tagged TIGIT; not shown: his tag
T2 sequence (looked up): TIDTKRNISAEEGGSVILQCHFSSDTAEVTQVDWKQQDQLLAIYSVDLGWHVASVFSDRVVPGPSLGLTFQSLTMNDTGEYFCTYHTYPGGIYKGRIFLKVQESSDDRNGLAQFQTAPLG

T3: human TIGIT on Jurkat cells (TIGIT/NFAT reporter Jurkat cells, BPS Bioscience #60538); Promega TIGIT Effector … (human, UniProt Q495A1 22-244)
T3 sequence (looked up): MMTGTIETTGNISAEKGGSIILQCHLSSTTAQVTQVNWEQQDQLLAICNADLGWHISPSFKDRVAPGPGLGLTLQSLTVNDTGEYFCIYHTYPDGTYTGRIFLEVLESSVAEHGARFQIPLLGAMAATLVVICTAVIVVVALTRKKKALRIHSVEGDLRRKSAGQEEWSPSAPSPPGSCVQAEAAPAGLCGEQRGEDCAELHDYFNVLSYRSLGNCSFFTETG


Tests used:
[1] = target: T1, his-tagged human TIGIT (Acro Biosystems …); assay: ELISA, coated His-TIGIT, 1 ug/ml
[2] = target: T2, his-tagged murine TIGIT (Acro …); assay: ELISA, coated His-TIGIT, 1 ug/ml
[3] = target: T4, His-tagged cynomolgus monkey TIGIT (Acro Biosystems #TIT-05223) (cynomolgus monkey, UniProt A0A7N9I9V4 89-209); assay: ELISA, coated His-TIGIT, 1 ug/ml
T4 construct: Bought protein; also called cyno TIGIT; cynomolgus TIGIT; not shown: His tag
T4 sequence (A0A7N9I9V4 entry or part of it): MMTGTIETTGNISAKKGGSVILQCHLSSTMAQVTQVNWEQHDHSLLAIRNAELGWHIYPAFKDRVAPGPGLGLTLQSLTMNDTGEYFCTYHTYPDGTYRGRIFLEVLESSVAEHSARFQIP

[4] = target: T3, human TIGIT on Jurkat cells (TIGIT/NFAT …); assay: cell-based or functional assay
[5] = target: T3, human TIGIT on Jurkat cells (TIGIT/NFAT …); assay: flow cytometry, TIGIT/NFAT Jurkat cells, 10 ug/ml
[6] = target: T1, his-tagged human TIGIT (Acro Biosystems …); assay: SPR (Carterra LSA), scFv-Fc captured, His-TIGIT analyte
Protocol: (§1) Binding affinities of anti-TIGIT antibodies to human, cyno, and murine TIGIT were measured by Surface Plasmon Resonance (SPR) on a Carterra LSA instrument. Goat anti-human Fc antibody was amine coupled to a HC30M chip. ScFv-Fc supernatants were diluted 30-fold with HBSTE and were captured by the anti-human Fc coupled HC30M chip. A 1:2 dilution series of his-tagged human TIGIT, starting at 400 nM, was injected onto the chip for binding. A dilution series was also carried out for cyno TIGIT and murine TIGIT. Data were analyzed using the Carterra™ Kinetics software.

[7] = target: T4, His-tagged cynomolgus monkey TIGIT …; assay: as above
Protocol: as §1

[8] = target: T2, his-tagged murine TIGIT (Acro …); assay: as above
Protocol: as §1

Row | Binder | Elisa OD450 [1] | Elisa OD450 [2] | Elisa OD450 [3] | max. signal (% of 22G2) [4] | MFI [5] | Kd [6] | Kd [7] | Kd [8]
1 | 43586p1.1.G9 (scFv, V domains shown) VH: EVQLLESGGGLVQPGGSLRLSCAASGFTFTTYAMSWVRQAPGKGLEWVAGISYIGSDKYYADSVKGRLTISRDNSKNTLYLQMDSLRAEDTAVYYCAKHLTGGTTDYYYYGMDVWGQGTTVTVS VL: QSVLTQPPSASGTPGQRVTISCSGSTSNIGTSRYVHWYQHLPGTAPKLLIYLDSQRPSGVPDRFSASKSGTSASLAISGLQSEDEADYYCSAWDDSLSAWVFGGGTKLTVL | 2.23 OD450 | 0.046 OD450 | 1.6 OD450 | 113 % of 22G2 | 9000 MFI | 1.08 nM | 18.8 nM | 
2 | 43586p1.2.B8 (scFv, V domains shown) VH: EVQLLESGGGLVQPGGSLRLSCAASGFTFTSYLMSWVRQAPGKGLEWVSTITWDGDRTYYADSVKGRFTISRDNSKNTLYLQMNSLRVGDTAVYYCAKHWTVFQYGMDVWGQGTTVTVSS VL: QSVLTQPASASGTPGQRVTITCSGTISNIETKYVSWYQQLPGTAPKLLIYGNHQRPSGVPDRFSGSKSGTSASLAISGLQSEDEADYYCASWENDLKSWVFGGGTKLTVL | 2.1 OD450 | 1.66 OD450 | 1.46 OD450 | 130 % of 22G2 | 9470 MFI | 0.125 nM | 25.3 nM | 501 nM
3 | 43586p1.2.C5 (scFv, V domains shown) VH: EVQLLESGGGLVQPGGSLRLSCAASGFTVSDHYMSWVRQAPGKGLEWVSTTSSTSWKNYTYYADSVKGRFSISRDNSENTLYLQMNGLRAEDTAVYYCAKGSYGMDVWGQGTTVTVSS VL: QSVLTQPPSASGTPGQRVTISCSGSNFNIGTKYLYWYQQLPGTAPKLLIYLDSQRPSGVPDRFSTSKPGTSASLAISGLQSEDEADYYCALWDDHLHGWVFGGGTKLTVL | 2.03 OD450 | 2.03 OD450 | 0.685 OD450 | 91 % of 22G2 | 10700 MFI | 1.04 nM | 411 nM | 3.2 nM
4 | 43586p1.2.C9 (scFv, V domains shown) VH: EVQLLESGGGLVQPGGSLRLSCAASGFTFDDYVMSWVRQAPGKGLEWVSLINWNGDKTYYADSVKGRFTISRDNSKNTLYLQMNSLRAEDTAIYYCAKHWIVFQYGMDVWGQGTTVTVSS VL: QSVLTQPPSASGTPGQRVTISCSGSISNIETKYVSWYQQLPGTAPKLLIYNSDQRPSGVPDRFSGSKSGTSASLAISGLQSEDEADYYCVSWDASLKSWVFGGGTKLTVL | 2.17 OD450 | 0.046 OD450 | 1.61 OD450 | 126 % of 22G2 | 8330 MFI | 0.202 nM | 8.69 nM | 3.66 nM
5 | 43586p1.2.C12 (scFv, V domains shown) VH: ESGGGLVQPGGSLRLSCAASGFTFSDYLMTWVRQAPGKGLEWVSTITWDGDRTYYADSVKGRFTISRDNSKNTLYLQMNSLRAEDTAVYYCAKHWTVFQYGMDVWGQGTTVTVSS VL: QSVLTQPPSASGTPGQRVTISCSGTISNIEIKYVSWYQQLPGTAPKLLIYGNHQRPSGVPDRFSGSKSGTSASLAISGLQSEDEADYYCSSWENDLKSWVFGGGTKLTVL | 2.21 OD450 | 2.03 OD450 | 1.68 OD450 | 118 % of 22G2 | 11900 MFI | 0.192 nM | 9.18 nM | 68.2 nM
6 | 43586p2.B02 (scFv, V domains shown) VH: EVQLLESGGGLVQPGGSLRLSCAASGFTFTSYAMSWVSQAPGKGLEWVAGISYDGSSKYYADSVKGRLTISRDNSKNTLYLQMNSLRAEDTAIYYCAKHLTGGTTDYYYYAMDVWGQGTTVTVSS VL: QSVLTQPPSASGTPGQRVTISCSGSRSNIGTNRYVHWYQQLPGTAPKLLIYGNHQRPSGVPDRFSGSKSGTSASLAISGLQSEDEADYYCAAWDDSLSAWVFGGGTKLTVL | 1.94 OD450 | 0.046 OD450 | 1.59 OD450 | 106 % of 22G2 | 9090 MFI | 2.19 nM | 26.8 nM | 
7 | 43586p2.C09 (scFv, V domains shown) VH: EVQLLESGGGLVQPGGSLRLSCTASGFTFTSYAMSWVSQAPGKGLEWVAGISYDGSIKYYADSVKGRLTISRDNSKNTLYLQMNSLRAEDTAIYYCAKHLTGGTTDYYYYAMDVWGQGTTVTVSS VL: QSVLTQPPSASGTPGQRVTISCSGSTSNIGTNRYVHWYQQFPGTAPKLLIYGTDRRPSGVSDRFSGSKSGTSASLAISGLQSEDEADYYCAAWDDSLSAWVFGGGTKLTVL | 2.07 OD450 | 0.046 OD450 | 1.79 OD450 | 115 % of 22G2 | 8830 MFI | 0.354 nM | 2.62 nM | 
8 | 43645p1.D7 (scFv, V domains shown) VH: EVQLLESGGGLVQPGGSLRLSCAASGFTFSRNSMSWVRQAPGKGLEWVSTINSGSSYTYYADSVKGRFTISRDNSKNTLYLQMNSLRAEDTAVYYCAKDNCNGYHCYGMDVWGLGTTVTVSS VL: QSVLTQPPSASGTPGQRVTISCSGSTSNVGDHYVHWYQQLPGTAPKLLIYKDDQRPSGVPDRFSGSKSGTSASLAISGLQSEDEADYYCSTWDNTLNGWVFGGGTKLTVL | 2.06 OD450 | 0.32 OD450 | 1.88 OD450 | 57 % of 22G2 | 9660 MFI | 6.76 nM | 6.27 nM | 
9 | 43586p1.1.A7 (scFv, V domains shown) VH: EVQLLESGGGLVQPGGSLRLSCAASGFTFTSYAMSWVRQAPGKGLEWVAGISYDGSIQYYADSVKGRLTISRDNSKNTLNLQMNSLRAGDTAVYYCAKHLTGGTTDYYYYGMDVWGQGTTVTVSS VL: QSVMTQPPSASGTPGQRVTISCSGSSSNIGTNRYVHWYKQVPGTAPKLLIYGNHQRPSGVPDRFSGSKSGTSASLAISGLQSEDEADYYCAAWDGSLSGWVFGGGTKLTVL | 2.01 OD450 | 0.045 OD450 | 1.34 OD450 | 89 % of 22G2 | 9000 MFI | 0.721 nM | 20 nM | 
10 | 43586p2.D06 (scFv, V domains shown) VH: EVQLLESGGGLVQPGGSLRLSCAASGFTFSSYWMNWVRQAPGKGLEWVSGIYSGGTTYYADSVKGRFTISRDNSKNTLYLQMNSLRAEDTAVYYCTRENWKENNAMDVWGQGTTVTVSS VL: QSVLTQPPSASGTPGQRVTISCSGVTSNIASYHVYWYQQLPGTAPKLLIYLNSQRPSGVPDRFSASKSGTSASLAISGLQSEDEADYYCATWDGSLNGWVFGGGTKLTVL | 1.77 OD450 | 1.36 OD450 | 1.66 OD450 |  | 15400 MFI | 0.344 nM | 1.06 nM | 3.09 nM
11 | 43586p2.G02 (scFv, V domains shown) VH: EVQLLESGGGLVQPGGSLRLSCAASGFTFSSYWMNWVRQAPGKGLEWVSGIYSGGTTYYADSVKGRFTISRDNSKNTLYLQMNSLRAEDTAVYYCTRENWKENNAMDVWGQGTTVTVSS VL: QSVLTQPPSASGTPGQRVTISCSGVTSNIASYHVYWYQQLPGTAPKLLIYLNSQRPSGVPDRFSASKSGTSASLAISGLQSEDEADYYCATWDGSQNGWVFGGGTKLTVL | 1.88 OD450 | 1.7 OD450 | 1.5 OD450 |  | 7590 MFI | 0.639 nM | 2.37 nM | 1.57 nM
